Source: US20240124553A1
Values joined by “and” are separate entries in the source; they are usually repeats but may differ in a detail not shown here. Equal entries are not always repeated. Where two headings read alike, the source gives them in different places.

Experiments:
[1] = molecular target: CHIKV virus-like particles (strain 37997) (chikungunya virus)
[2] = molecular target: CHIKV E2-6K-E1 envelope proteins (strain S27) with E2 T196A (Chikungunya virus strain S27) (UniProt Q8JUX5); assay: flow cytometry, transfected 293T cells
[3] = molecular target: CHIKV E2-6K-E1 envelope proteins (strain S27) with E2 N218A (Chikungunya virus strain S27) (UniProt Q8JUX5); assay: flow cytometry, transfected 293T cells
[4] = molecular target: CHIKV E2-6K-E1 envelope proteins (strain S27) with E2 T191A (Chikungunya virus strain S27) (UniProt Q8JUX5); assay: flow cytometry, transfected 293T cells
[5] = molecular target: CHIKV E2-6K-E1 envelope proteins (strain S27) with E2 V197A (Chikungunya virus strain S27) (UniProt Q8JUX5); assay: flow cytometry, transfected 293T cells
[6] = molecular target: CHIKV E2-6K-E1 envelope proteins (strain S27) with E2 S185A (Chikungunya virus strain S27) (UniProt Q8JUX5); assay: flow cytometry, transfected 293T cells
[7] = molecular target: CHIKV E2-6K-E1 envelope proteins (strain S27) with E2 S206A (Chikungunya virus strain S27) (UniProt Q8JUX5); assay: flow cytometry, transfected 293T cells
[8] = molecular target: CHIKV E2-6K-E1 envelope proteins (strain S27) with E2 K189A (Chikungunya virus strain S27) (UniProt Q8JUX5); assay: flow cytometry, transfected 293T cells
[9] = molecular target: CHIKV E2-6K-E1 envelope proteins (strain S27) with E2 R198A (Chikungunya virus strain S27) (UniProt Q8JUX5); assay: flow cytometry, transfected 293T cells
[10] = molecular target: CHIKV E2-6K-E1 envelope proteins (strain S27) with E2 V216A (Chikungunya virus strain S27) (UniProt Q8JUX5); assay: flow cytometry, transfected 293T cells
[11] = molecular target: CHIKV E2-6K-E1 envelope proteins (strain S27) with E2 N219A (Chikungunya virus strain S27) (UniProt Q8JUX5); assay: flow cytometry, transfected 293T cells
[12] = molecular target: CHIKV E2-6K-E1 envelope proteins (strain S27) with E2 C203A (Chikungunya virus strain S27) (UniProt Q8JUX5); assay: flow cytometry, transfected 293T cells
[13] = molecular target: CHIKV E2-6K-E1 envelope proteins (strain S27) with E2 Q195A (Chikungunya virus strain S27) (UniProt Q8JUX5); assay: flow cytometry, transfected 293T cells
[14] = molecular target: CHIKV E2-6K-E1 envelope proteins (strain S27) with E2 G209A (Chikungunya virus strain S27) (UniProt Q8JUX5); assay: flow cytometry, transfected 293T cells
[15] = molecular target: CHIKV E2-6K-E1 envelope proteins (strain S27) with E2 C220A (Chikungunya virus strain S27) (UniProt Q8JUX5); assay: flow cytometry, transfected 293T cells
[16] = molecular target: CHIKV E2-6K-E1 envelope proteins (strain S27) with E2 Y199A (Chikungunya virus strain S27) (UniProt Q8JUX5); assay: flow cytometry, transfected 293T cells
[17] = molecular target: CHIKV E2-6K-E1 envelope proteins (strain S27) with E2 K215A (Chikungunya virus strain S27) (UniProt Q8JUX5); assay: flow cytometry, transfected 293T cells
[18] = molecular target: CHIKV E2-6K-E1 envelope proteins (strain S27) with E2 N187A (Chikungunya virus strain S27) (UniProt Q8JUX5); assay: flow cytometry, transfected 293T cells
[19] = molecular target: CHIKV E2-6K-E1 envelope proteins (strain S27) with E2 K200A (Chikungunya virus strain S27) (UniProt Q8JUX5); assay: flow cytometry, transfected 293T cells
[20] = molecular target: CHIKV E2-6K-E1 envelope proteins (strain S27) with E2 I217A (Chikungunya virus strain S27) (UniProt Q8JUX5); assay: flow cytometry, transfected 293T cells
[21] = molecular target: CHIKV E2-6K-E1 envelope proteins (strain S27) with E2 G186A (Chikungunya virus strain S27) (UniProt Q8JUX5); assay: flow cytometry, transfected 293T cells
[22] = molecular target: CHIKV E2-6K-E1 envelope proteins (strain S27) with E2 N202A (Chikungunya virus strain S27) (UniProt Q8JUX5); assay: flow cytometry, transfected 293T cells
[23] = molecular target: CHIKV E2-6K-E1 envelope proteins (strain S27) with E2 G204A (Chikungunya virus strain S27) (UniProt Q8JUX5); assay: flow cytometry, transfected 293T cells
[24] = molecular target: CHIKV E2-6K-E1 envelope proteins (strain S27) with E2 S182A (Chikungunya virus strain S27) (UniProt Q8JUX5); assay: flow cytometry, transfected 293T cells
[25] = molecular target: CHIKV E2-6K-E1 envelope proteins (strain S27) with E2 I190A (Chikungunya virus strain S27) (UniProt Q8JUX5); assay: flow cytometry, transfected 293T cells
[26] = molecular target: CHIKV E2-6K-E1 envelope proteins (strain S27) with E2 N193A (Chikungunya virus strain S27) (UniProt Q8JUX5); assay: flow cytometry, transfected 293T cells
[27] = molecular target: CHIKV E2-6K-E1 envelope proteins (strain S27) with E2 L210A (Chikungunya virus strain S27) (UniProt Q8JUX5); assay: flow cytometry, transfected 293T cells
[28] = molecular target: CHIKV E2-6K-E1 envelope proteins (strain S27) with E2 I211A (Chikungunya virus strain S27) (UniProt Q8JUX5); assay: flow cytometry, transfected 293T cells
[29] = molecular target: CHIKV E2-6K-E1 envelope proteins (strain S27) with E2 L181A (Chikungunya virus strain S27) (UniProt Q8JUX5); assay: flow cytometry, transfected 293T cells
[30] = molecular target: CHIKV E2-6K-E1 envelope proteins (strain S27) with E2 Q184A (Chikungunya virus strain S27) (UniProt Q8JUX5); assay: flow cytometry, transfected 293T cells
[31] = molecular target: CHIKV E2-6K-E1 envelope proteins (strain S27) with E2 S194A (Chikungunya virus strain S27) (UniProt Q8JUX5); assay: flow cytometry, transfected 293T cells
[32] = molecular target: CHIKV E2-6K-E1 envelope proteins (strain S27) with E2 G205A (Chikungunya virus strain S27) (UniProt Q8JUX5); assay: flow cytometry, transfected 293T cells
[33] = molecular target: CHIKV E2-6K-E1 envelope proteins (strain S27) with E2 V192A (Chikungunya virus strain S27) (UniProt Q8JUX5); assay: flow cytometry, transfected 293T cells
[34] = molecular target: CHIKV E2-6K-E1 envelope proteins (strain S27) with E2 V188A (Chikungunya virus strain S27) (UniProt Q8JUX5); assay: flow cytometry, transfected 293T cells
[35] = molecular target: CHIKV E2-6K-E1 envelope proteins (strain S27) with E2 Q183A (Chikungunya virus strain S27) (UniProt Q8JUX5); assay: flow cytometry, transfected 293T cells
[36] = molecular target: CHIKV E2-6K-E1 envelope proteins (strain S27) with E2 C201A (Chikungunya virus strain S27) (UniProt Q8JUX5); assay: flow cytometry, transfected 293T cells
[37] = molecular target: CHIKV E2-6K-E1 envelope proteins (strain S27) with E2 T212A (Chikungunya virus strain S27) (UniProt Q8JUX5); assay: flow cytometry, transfected 293T cells
[38] = molecular target: CHIKV E2-6K-E1 envelope proteins (strain S27) with E2 L180A (Chikungunya virus strain S27) (UniProt Q8JUX5); assay: flow cytometry, transfected 293T cells
[39] = molecular target: Sindbis virus strain TR339 (virions; also structural proteins on infected Vero cells) (Sindbis virus)
[40] = molecular target: CHIKV virus-like particles (strain 37997) (chikungunya virus); remark: listed apart in the source
[41] = molecular target: CHIKV virus-like particles (strain 37997) (chikungunya virus); remark: listed apart in the source
[42] = molecular target: CHIKV virus-like particles (strain 37997) (chikungunya virus); remark: listed apart in the source
[43] = molecular target: CHIKV virus-like particles (strain 37997) (chikungunya virus); assay: SPR, […], kinetic fit ([…]
[44] = molecular target: CHIKV virus-like particles (strain 37997) (chikungunya virus); remark: listed apart in the source
[45] = molecular target: CHIKV virus-like particles (strain 37997) (chikungunya virus); remark: listed apart in the source
[46] = molecular target: CHIKV virus-like particles (strain 37997) (chikungunya virus); remark: listed apart in the source
[47] = molecular target: CHIKV virus-like particles (strain 37997) (chikungunya virus); remark: listed apart in the source
[48] = molecular target: CHIKV virus-like particles (strain 37997) (chikungunya virus); remark: listed apart in the source
[49] = molecular target: CHIKV strain 181/25 (virions; also E2-E1 shown on infected cells) (chikungunya virus); assay: cryo-EM of infectious CHIKV with Mxra8

## CHK-265 (murine anti-CHIKV mAb) (antibody)
[1]
  EC50 (read off the curve): 0.003 µg/mL

## IM-CKV063 (antibody)
[2]
  Binding Reactivity (% WT): 83 % WT
[3]
  Binding Reactivity (% WT): 97.6 % WT
[4]
  Binding Reactivity (% WT): 94.8 % WT
[5]
  Binding Reactivity (% WT): 67.4 % WT
[6]
  Binding Reactivity (% WT): 108 % WT
[7]
  Binding Reactivity (% WT): 119 % WT
[8]
  Binding Reactivity (% WT): 109 % WT
[9]
  Binding Reactivity (% WT): 98.2 % WT
[10]
  Binding Reactivity (% WT): 97.7 % WT
[11]
  Binding Reactivity (% WT): 98 % WT
[12]
  Binding Reactivity (% WT): 45.1 % WT
[13]
  Binding Reactivity (% WT): 78.6 % WT
[14]
  Binding Reactivity (% WT): 99.8 % WT
[15]
  Binding Reactivity (% WT): 95.2 % WT
[16]
  Binding Reactivity (% WT): 79.8 % WT
[17]
  Binding Reactivity (% WT): 102 % WT
[18]
  Binding Reactivity (% WT): 114 % WT
[19]
  Binding Reactivity (% WT): 119 % WT
[20]
  Binding Reactivity (% WT): 69.7 % WT
[21]
  Binding Reactivity (% WT): 95.4 % WT
[22]
  Binding Reactivity (% WT): 92.8 % WT
[23]
  Binding Reactivity (% WT): 91.5 % WT
[24]
  Binding Reactivity (% WT): 121 % WT
[25]
  Binding Reactivity (% WT): 56.1 % WT
[26]
  Binding Reactivity (% WT): 85.7 % WT
[27]
  Binding Reactivity (% WT): 86.3 % WT
[28]
  Binding Reactivity (% WT): 77.2 % WT
[29]
  Binding Reactivity (% WT): 87.9 % WT
[30]
  Binding Reactivity (% WT): 121 % WT
[31]
  Binding Reactivity (% WT): 94 % WT
[32]
  Binding Reactivity (% WT): 62 % WT
[33]
  Binding Reactivity (% WT): 98.3 % WT
[34]
  Binding Reactivity (% WT): 114 % WT
[35]
  Binding Reactivity (% WT): 101 % WT
[36]
  Binding Reactivity (% WT): 47.7 % WT
[37]
  Binding Reactivity (% WT): 108 % WT
[38]
  Binding Reactivity (% WT): 114 % WT

## duck MXRA8-Fc (Fc fusion)
[39]
  neutralisation of SINV-GFP infection; IC50 (read off the curve): 1 µg/mL

## MAb C9 (antibody)
[2]
  Binding Reactivity (% WT): 99.8 % WT
[3]
  Binding Reactivity (% WT): 72 % WT
[4]
  Binding Reactivity (% WT): 118 % WT
[5]
  Binding Reactivity (% WT): 83.8 % WT
[6]
  Binding Reactivity (% WT): 105 % WT
[7]
  Binding Reactivity (% WT): 96 % WT
[8]
  Binding Reactivity (% WT): 129 % WT
[9]
  Binding Reactivity (% WT): 122 % WT
[10]
  Binding Reactivity (% WT): 112 % WT
[11]
  Binding Reactivity (% WT): 117 % WT
[12]
  Binding Reactivity (% WT): 58.3 % WT
[13]
  Binding Reactivity (% WT): 129 % WT
[14]
  Binding Reactivity (% WT): 108 % WT
[15]
  Binding Reactivity (% WT): 104 % WT
[16]
  Binding Reactivity (% WT): 122 % WT
[17]
  Binding Reactivity (% WT): 143 % WT
[18]
  Binding Reactivity (% WT): 123 % WT
[19]
  Binding Reactivity (% WT): 144 % WT
[20]
  Binding Reactivity (% WT): 110 % WT
[21]
  Binding Reactivity (% WT): 101 % WT
[22]
  Binding Reactivity (% WT): 96.2 % WT
[23]
  Binding Reactivity (% WT): 106 % WT
[24]
  Binding Reactivity (% WT): 132 % WT
[25]
  Binding Reactivity (% WT): 81.8 % WT
[26]
  Binding Reactivity (% WT): 113 % WT
[27]
  Binding Reactivity (% WT): 105 % WT
[28]
  Binding Reactivity (% WT): 126 % WT
[29]
  Binding Reactivity (% WT): 110 % WT
[30]
  Binding Reactivity (% WT): 135 % WT
[31]
  Binding Reactivity (% WT): 119 % WT
[32]
  Binding Reactivity (% WT): 111 % WT
[33]
  Binding Reactivity (% WT): 114 % WT
[34]
  Binding Reactivity (% WT): 141 % WT
[35]
  Binding Reactivity (% WT): 176 % WT
[36]
  Binding Reactivity (% WT): 65 % WT
[37]
  Binding Reactivity (% WT): 125 % WT
[38]
  Binding Reactivity (% WT): 126 % WT

## monovalent mouse MXRA8 (cleaved from mouse MXRA8-Fc with GlySERIAS) (from UniProt Q9DBV4 20-340) (receptor)
[40]
  Kd: 68 nM
[41]
  Kd: 76 nM

## monovalent Du-D1-Mo-D2 MXRA8 (cleaved from the Fc fusion with GlySERIAS) (from UniProt Q9DBV4 23-65; Q9DBV4 195-293) (receptor)
[40]
  Kd: 545 nM
[42]
  Kd: 665 nM

## Mxra8 cleaved from Mxra8-HRV-Fc (soluble monomeric mouse Mxra8) (from UniProt Q9DBV4 23-336) (receptor)
[43]
  Kd: 83.9 nM and 270 nM
[44]
  Kd: 200 nM
[45]
  Kd: 183 nM and 224 nM
  kon: 37000 M⁻¹ s⁻¹
  t1/2: 1.8 min
[46]
  Kd: 84 nM and 270 nM
[47]
  Mxra8 molecules per virion (molecules per virion): 240
[48]
  Kd: 60 nM and 300 nM
[49]
  Mxra8 proteins bound per particle (proteins per particle): 60

## cleaved human Mxra8 (human monomeric MXRA8) (from UniProt Q9BRK3 20-341) (receptor)
[43]
  Kd: 98.3 nM and 210 nM
[48]
  Kd: 60 nM and 300 nM
